Test results as given in US20190218304A1 (INNATE PHARMA, published 2019).
Substitutions are numbered along the chain they refer to.

What was measured:
[1] = molecular target: T1, human CD39 expressed on cells (human, UniProt P49961 1-510); assay: flow cytometry on Hek-293T cells transfected with wild-type CD39 (unstained cells, US: 10,3) [panel WT]
T1 construct: On CHO transfectants, HEK-293T transfectants (wild type), Ramos lymphoma cells or monocyte-derived dendritic cells, as named under assay; also called huCD39; CHO-huCD39
T1 sequence: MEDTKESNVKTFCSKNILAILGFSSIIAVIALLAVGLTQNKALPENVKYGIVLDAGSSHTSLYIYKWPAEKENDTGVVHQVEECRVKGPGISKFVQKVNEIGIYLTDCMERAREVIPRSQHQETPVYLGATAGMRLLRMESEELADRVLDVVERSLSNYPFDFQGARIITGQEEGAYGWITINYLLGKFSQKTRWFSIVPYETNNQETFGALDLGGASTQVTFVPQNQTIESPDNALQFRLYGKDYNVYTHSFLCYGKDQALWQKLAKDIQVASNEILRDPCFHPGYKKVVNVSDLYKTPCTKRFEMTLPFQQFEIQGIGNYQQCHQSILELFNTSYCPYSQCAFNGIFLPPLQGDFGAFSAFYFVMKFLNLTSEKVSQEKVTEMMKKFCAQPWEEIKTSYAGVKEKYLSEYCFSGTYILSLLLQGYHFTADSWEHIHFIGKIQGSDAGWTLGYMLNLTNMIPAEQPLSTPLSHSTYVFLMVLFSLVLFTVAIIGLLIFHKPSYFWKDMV

[2] = molecular target: T2, murine CD39 expressed on CHO cells (murine, UniProt P55772 1-510); assay: flow cytometry titration on CHO cells expressing murine CD39 [panel CHO-moCD39]
T2 construct: whole, on cells; also called CHO-moCD39; mouse CD39
T2 sequence (looked up): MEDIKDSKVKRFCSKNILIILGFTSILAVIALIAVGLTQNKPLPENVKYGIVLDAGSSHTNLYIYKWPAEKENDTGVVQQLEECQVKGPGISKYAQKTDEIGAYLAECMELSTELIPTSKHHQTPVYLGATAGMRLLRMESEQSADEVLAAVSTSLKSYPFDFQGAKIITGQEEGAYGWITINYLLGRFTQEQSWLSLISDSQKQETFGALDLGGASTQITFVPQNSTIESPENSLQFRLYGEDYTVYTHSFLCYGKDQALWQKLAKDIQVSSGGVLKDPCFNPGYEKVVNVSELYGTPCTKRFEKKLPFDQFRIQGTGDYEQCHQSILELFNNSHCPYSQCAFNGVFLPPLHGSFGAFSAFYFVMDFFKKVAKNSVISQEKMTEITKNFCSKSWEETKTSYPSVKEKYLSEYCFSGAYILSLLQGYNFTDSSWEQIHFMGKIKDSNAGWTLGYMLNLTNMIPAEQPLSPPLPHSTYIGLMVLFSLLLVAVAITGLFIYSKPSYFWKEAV
Method: Cells were incubated with various concentration of unlabeled anti-CD39 antibody from 30 μg/ml to 5×10⁻⁴ μg/ml, for 30 minutes at 4° C. After washes, cells were incubated with Goat anti-mouse H+L labeled secondary antibody for 30 min at 4° C.

[3] = molecular target: T3, CD39 mutant 19 (human, UniProt P49961 1-510); assay: flow cytometry on Hek-293T cells transfected with CD39 mutant 19 [panel M19]
T3 construct: Expressed on transfected Hek-293T cells; also called M19
T3 chain: T1 sequence with R138A, M139A, E142K

[4] = molecular target: T4, CD39 mutant 15 (human, UniProt P49961 1-510); assay: flow cytometry on Hek-293T cells transfected with CD39 mutant 15 [panel M15]
T4 construct: Expressed on transfected Hek-293T cells; also called M15
T4 chain: T1 sequence with K87A, E100A, D107A

B1: antibody I-394 (antibody, human IgG1, kappa, V domains shown)
VH: EVQLQQSGPELVKPGASVKMSCKASGYTFTDYNMHWVKQSHGRTLEWIGYIVPLNGGSTFNQKFKGRATLTVNTSSRTAYMELRSLTSEDSAAYYCARGGTRFAYWGQGTLVTVSA
VL: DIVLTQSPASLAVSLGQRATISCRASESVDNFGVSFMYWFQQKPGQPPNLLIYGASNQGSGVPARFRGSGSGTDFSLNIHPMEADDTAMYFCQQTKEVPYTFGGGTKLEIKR
notes: The hybridoma-derived mouse form was used in early screening
Median : Comp-Alexa Fluor 647-A [1]: 3720 | binding result [2]: no binding | binding result [3]: no binding | binding result [4]: binds
